Source: publication PMC6812003 (Redox Biology, 2019)
Values belong to the molecule of their own block, whether it stands above or below them.

Assays:
[1] = target: recombinant p16^INK4A (wild type) (Homo sapiens) (UniProt P42771); assay: non-reducing SDS-PAGE
co-IP = target: the molecule itself; assay: co-IP
[2] = target: T1, endogenous p16^INK4A (human (endogenous in HEK293T)), P42771; assay: co-IP; settings: remark: other sources report otherwise
T1 chain: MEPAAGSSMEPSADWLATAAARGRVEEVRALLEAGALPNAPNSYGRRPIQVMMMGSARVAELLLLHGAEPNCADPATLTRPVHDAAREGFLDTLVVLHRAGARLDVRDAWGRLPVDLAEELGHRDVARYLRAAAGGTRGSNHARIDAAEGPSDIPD

stoichiometry N [1]: 2
Molecule: recombinant p16^INK4A (wild type) (from UniProt P42771 1-156) (natural protein)

B1: FLAG-p16^INK4A (wild type) (natural protein, human, UniProt P42771 9-156, looked up)
chain: MEPSADWLATAAARGRVEEVRALLEAGALPNAPNSYGRRPIQVMMMGSARVAELLLLHGAEPNCADPATLTRPVHDAAREGFLDTLVVLHRAGARLDVRDAWGRLPVDLAEELGHRDVARYLRAAAGGTRGSNHARIDAAEGPSDIPD
stoichiometry N (co-IP): 2

stoichiometry N [2]: 2
B2: endogenous p16^INK4A, P42771 1-156 (natural protein)
chain: MEPAAGSSMEPSADWLATAAARGRVEEVRALLEAGALPNAPNSYGRRPIQVMMMGSARVAELLLLHGAEPNCADPATLTRPVHDAAREGFLDTLVVLHRAGARLDVRDAWGRLPVDLAEELGHRDVARYLRAAAGGTRGSNHARIDAAEGPSDIPD
